To fix the notation:
T1: human IL-2 receptor (IL-2Rα, IL-2Rβ, IL-2Rγ) (human, UniProt P01589 22-272; P14784 27-551; P31785 23-369)
T1 sequence (looked up) 1: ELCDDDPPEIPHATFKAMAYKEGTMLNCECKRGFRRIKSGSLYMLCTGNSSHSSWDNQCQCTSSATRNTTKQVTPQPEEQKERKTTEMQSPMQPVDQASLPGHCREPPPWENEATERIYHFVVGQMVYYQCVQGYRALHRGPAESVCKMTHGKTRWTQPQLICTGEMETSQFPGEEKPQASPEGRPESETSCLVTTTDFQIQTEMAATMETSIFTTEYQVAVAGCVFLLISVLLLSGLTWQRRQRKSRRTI
T1 sequence (looked up) 2: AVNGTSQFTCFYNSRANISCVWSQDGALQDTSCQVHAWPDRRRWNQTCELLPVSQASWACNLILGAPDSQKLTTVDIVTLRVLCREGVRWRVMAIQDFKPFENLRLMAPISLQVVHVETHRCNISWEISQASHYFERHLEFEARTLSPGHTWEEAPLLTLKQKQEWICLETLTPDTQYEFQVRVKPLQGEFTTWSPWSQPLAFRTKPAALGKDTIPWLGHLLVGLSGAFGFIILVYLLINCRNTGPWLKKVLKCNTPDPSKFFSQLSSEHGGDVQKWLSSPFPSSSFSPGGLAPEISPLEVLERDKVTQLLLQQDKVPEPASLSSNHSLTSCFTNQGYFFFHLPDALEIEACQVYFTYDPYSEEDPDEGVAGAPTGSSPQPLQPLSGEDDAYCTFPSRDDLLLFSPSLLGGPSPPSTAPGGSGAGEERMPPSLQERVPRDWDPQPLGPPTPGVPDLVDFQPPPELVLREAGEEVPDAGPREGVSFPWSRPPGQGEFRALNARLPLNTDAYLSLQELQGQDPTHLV
T1 sequence (looked up) 3: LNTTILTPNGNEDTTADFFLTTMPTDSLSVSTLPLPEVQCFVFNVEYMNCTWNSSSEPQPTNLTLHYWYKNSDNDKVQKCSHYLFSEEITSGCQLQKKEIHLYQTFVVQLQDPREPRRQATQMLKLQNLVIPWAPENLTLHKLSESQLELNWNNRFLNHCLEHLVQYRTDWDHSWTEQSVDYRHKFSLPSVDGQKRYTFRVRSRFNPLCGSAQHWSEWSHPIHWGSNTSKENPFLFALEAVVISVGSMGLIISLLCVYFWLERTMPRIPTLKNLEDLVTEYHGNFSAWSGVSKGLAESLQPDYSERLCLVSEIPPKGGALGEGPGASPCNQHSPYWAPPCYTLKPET

T2: mouse PD-1 (mouse, UniProt Q02242 25-167, limits assumed)
T2 construct: also called mPD-1
T2 sequence (looked up): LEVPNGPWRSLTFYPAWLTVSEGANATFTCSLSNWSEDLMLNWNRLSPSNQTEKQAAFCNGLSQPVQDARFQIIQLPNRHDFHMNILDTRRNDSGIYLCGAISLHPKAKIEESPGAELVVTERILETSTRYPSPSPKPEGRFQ

B1: PD-L1(mut2)-Fc, I54Q/E58M/R113T/M115L/S117A/G119K (Fc fusion)
chain 1: FTVTVPKDLYVVEYGSNMTIECKFPVEKQLDLAALQVYWMMEDKNIIQFVHGEEDLKVQHSSYRQRARLLKDQLSLGNAALQITDVKLQDAGVYTCLIAYKGADYKRITVKVNAPYNKINQRILVVDPVTSEHELTCQAEGYPKAEVIWTSSDHQVLSGKTTTTNSKREEKLFNVTSTLRINTTTNEIFYCTFRRLDPEENHTAELVIPELPLAHPPNERGGGGSGGGDKTHTCPPCPAPEDEGGPSVFLFPPKPKDTLMISRTPEVTCVVVDVSHEDPEVKFNWYVDGVEVHNAKTKPREEQYNSTYRVVSVLTVLHQDWLNGKEYKCKVSNKALPAPIEKTISKAKGQPREPQVYVYPPSREEMTKNQVSLTCLVKGFYPSDIAVEWESNGQPENNYKTTPPVLDEDGSFALVSKLTVDKSRWQQGNVFSCSVMHEALHNHYTQKSLSLSPGK
chain 2: B1 chain 1 with D242K, E243K, Y359L, T374L, N398R, K400M, T402W, E408S, A413F, V415Y
B2: PD-L1(mut7)-Fc, I54Q/E58M/R113T/M115L/S117A (Fc fusion)
chain 1: B1 chain 1 with K101G
chain 2: FTVTVPKDLYVVEYGSNMTIECKFPVEKQLDLAALQVYWMMEDKNIIQFVHGEEDLKVQHSSYRQRARLLKDQLSLGNAALQITDVKLQDAGVYTCLIAYGGADYKRITVKVNAPYNKINQRILVVDPVTSEHELTCQAEGYPKAEVIWTSSDHQVLSGKTTTTNSKREEKLFNVTSTLRINTTTNEIFYCTFRRLDPEENHTAELVIPELPLAHPPNERGGGGSGGGDKTHTCPPCPAPEKKGGPSVFLFPPKPKDTLMISRTPEVTCVVVDVSHEDPEVKFNWYVDGVEVHNAKTKPREEQYNSTYRVVSVLTVLHQDWLNGKEYKCKVSNKALPAPIEKTISKAKGQPREPQVYVLPPSREEMTKNQVSLLCLVKGFYPSDIAVEWESNGQPENRYMTWPPVLDSDGSFFLYSKLTVDKSRWQQGNVFSCSVMHEALHNHYTQKSLSLSPGK
B3: PD-L1(mut3)-Fc, I54Q/R113T/M115L/S117A/G119K (Fc fusion)
chain 1: FTVTVPKDLYVVEYGSNMTIECKFPVEKQLDLAALQVYWEMEDKNIIQFVHGEEDLKVQHSSYRQRARLLKDQLSLGNAALQITDVKLQDAGVYTCLIAYKGADYKRITVKVNAPYNKINQRILVVDPVTSEHELTCQAEGYPKAEVIWTSSDHQVLSGKTTTTNSKREEKLFNVTSTLRINTTTNEIFYCTFRRLDPEENHTAELVIPELPLAHPPNERDKTHTCPPCPAPEDEGGPSVFLFPPKPKDTLMISRTPEVTCVVVDVSHEDPEVKFNWYVDGVEVHNAKTKPREEQYNSTYRVVSVLTVLHQDWLNGKEYKCKVSNKALPAPIEKTISKAKGQPREPQVYVYPPSREEMTKNQVSLTCLVKGFYPSDIAVEWESNGQPENNYKTTPPVLDEDGSFALVSKLTVDKSRWQQGNVFSCSVMHEALHNHYTQKSLSLSPGK
chain 2: B3 chain 1 with D234K, E235K, Y351L, T366L, N390R, K392M, T394W, E400S, A405F, V407Y
B4: PD-L1(mut4)-Fc, I54Q/E58M/M115L/S117A/G119K (Fc fusion)
chain 1: B3 chain 1 with E40M, T95R
chain 2: FTVTVPKDLYVVEYGSNMTIECKFPVEKQLDLAALQVYWMMEDKNIIQFVHGEEDLKVQHSSYRQRARLLKDQLSLGNAALQITDVKLQDAGVYRCLIAYKGADYKRITVKVNAPYNKINQRILVVDPVTSEHELTCQAEGYPKAEVIWTSSDHQVLSGKTTTTNSKREEKLFNVTSTLRINTTTNEIFYCTFRRLDPEENHTAELVIPELPLAHPPNERDKTHTCPPCPAPEKKGGPSVFLFPPKPKDTLMISRTPEVTCVVVDVSHEDPEVKFNWYVDGVEVHNAKTKPREEQYNSTYRVVSVLTVLHQDWLNGKEYKCKVSNKALPAPIEKTISKAKGQPREPQVYVLPPSREEMTKNQVSLLCLVKGFYPSDIAVEWESNGQPENRYMTWPPVLDSDGSFFLYSKLTVDKSRWQQGNVFSCSVMHEALHNHYTQKSLSLSPGK
B5: PD-L1(mut5)-Fc, I54Q/E58M/R113T/S117A/G119K (Fc fusion)
chain 1: B3 chain 1 with E40M, L97M
chain 2: B4 chain 2 with R95T, L97M
B6: PD-L1(mut6)-Fc, I54Q/E58M/R113T/M115L/G119K (Fc fusion)
chain 1: B3 chain 1 with E40M, A99S
chain 2: B4 chain 2 with R95T, A99S

Six molecules from US20240392004A1 (IMMUNOWAKE, published 2024) can be followed below.

Changes are numbered by the printed parent chain. Names and notes keep the numbering of the source.

T3 sequence (Q15116 25-167 limits assumed): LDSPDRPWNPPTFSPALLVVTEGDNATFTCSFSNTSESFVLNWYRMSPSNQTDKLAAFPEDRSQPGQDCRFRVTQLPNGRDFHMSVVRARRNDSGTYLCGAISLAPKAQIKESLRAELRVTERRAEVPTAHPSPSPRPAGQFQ

In one assay the target is human PD-1 on cells (HEK-PD-1 reporter cells; activated PBMC) (human, UniProt Q15116 25-288). The assay is described as follows: cell-based or functional assay.
human PD-1 on cells (HEK-PD-1 reporter cells; activated PBMC), sequence (Q15116 25-288): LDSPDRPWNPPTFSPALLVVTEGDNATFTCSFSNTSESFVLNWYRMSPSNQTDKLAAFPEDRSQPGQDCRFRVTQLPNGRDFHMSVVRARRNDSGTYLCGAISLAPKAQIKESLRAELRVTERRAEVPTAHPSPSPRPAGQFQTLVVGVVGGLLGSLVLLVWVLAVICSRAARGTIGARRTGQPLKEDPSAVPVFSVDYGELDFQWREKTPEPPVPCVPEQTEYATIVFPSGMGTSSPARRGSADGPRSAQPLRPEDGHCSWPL
On to B1, for which the “IL-2 signal transduction, HEK-IL-2-PD-1” value was under 0.1%.

For a further assay, the target named is T1, human IL-2 receptor (IL-2Rα, IL-2Rβ, …). The assay is described as follows: cell-based or functional assay.
For the molecule B1, the “IL-2 signal transduction, HEK-IL-2” value is under 0.1%.

The next assay concerns the target T3, human PD-1 (human, UniProt Q15116 25-167, limits assumed).
T3 construct: also called hPD-1
Nature of the assay: PD-L1-Fc format, calibrated on PD-L1(wt)-Fc, method not stated.
B1 returned a dissociation constant Kd of 150 nM.

The molecule B2 came in with a Kd of 98 nM.

For B3, binding was put at a Kd of 910 nM.

B4 showed a Kd of 1090 nM.

The molecule B5 showed a Kd of 1200 nM.

The molecule B6 registered a Kd of 555 nM.

The target in the next assay is T2, mouse PD-1. The description is as above.
For the molecule B1, binding was put at a Kd of 120 nM.

B2 displayed a Kd of 110 nM.

Take B3: binding was characterised by a dissociation constant (Kd) of 820 nM.

With B4, the Kd came out at 980 nM.

For the molecule B5, the Kd is 1100 nM.

As for B6, binding was characterised by a dissociation constant (Kd) of 420 nM.

What is called Kd is the free concentration of one partner at which half of the binding sites on the other are occupied at equilibrium, for simple one-to-one binding. A low value points to higher affinity.
